From the supplement of paper PMC10567573

B1: CDC25B (parent)
chain: ELKTFRLKTRSWAGERSRRELCSR

Variants of: B1
Experiment: protein stability index of a GFP-peptide fusion (GPS, HEK-293T) (PSI 1-6); higher = more stable
Conditions: c terminus: a fixed tail appended
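Note: lentivirally expressed fusions sorted by FACS into six bins by GFP to DsRed ratio, PSI derived from sequencing read proportions per bin multiplied by bin number.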

| Variant | protein stability index |
| --- | --- |
| ELKTFRLKTRSWAGERSRWELCSR [R19W] | 2.02 |
| ELKTFRLKTRSWAGERSRYELCSR [R19Y] | 3.51 |
| ELKTFRLKTRSWAGERSRVELCSR [R19V] | 2.74 |
| ELKTFRLKTRSWAGERSRRELMSR [C22M] | 2.96 |
| ELKTFRLKTRSWAGERSRRELNSR [C22N] | 4.04 |
| ELKTFRLKTRSWAGERSRRELKSR [C22K] | 3.57 |
| ELKTFRLKTRSWAGERSRRELFSR [C22F] | 3.01 |
| ELKTFRLKTRSWAGERSRRELSSR [C22S] | 3.25 |
| ELKTFRLKTRSWAGERSRRELASR [C22A] | 3.36 |
| ELKTFRLKTRSWAGERSRRELHSR [C22H] | 3.42 |
| ELKTFRLKTRSWAGERSRRELGSR [C22G] | 4.06 |
| ELKTFRLKTRSWAGERSRRELQSR [C22Q] | 3.26 |
| ELKTFRLKTRSWAGERSRRELRSR [C22R] | 4.04 |
| ELKTFRLKTRSWAGERSRRELPSR [C22P] | 3.01 |
| ELKTFRLKTRSWAGERSRRELVSR [C22V] | 3.54 |
| ELKTFRLKTRSWAGERSRRELTSR [C22T] | 3.48 |
| ELKTFRLKTRSWAGERSRRELWSR [C22W] | 2.89 |
| ELKTFRLKTRSWAGERSRRELESR [C22E] | 3.65 |
| ELKTFRLKTRSWAGERSRRELISR [C22I] | 3.33 |
| ELKTFRLKTRSWAGERSRRELYSR [C22Y] | 2.6 |
| ELKTFRLKTRSWAGERSRRELLSR [C22L] | 2.79 |
| ELKTFRLKTRSWAGERSRRELDSR [C22D] | 3.27 |
| ELKTFRLKTRSWAGERSRREQCSR [L21Q] | 3.15 |
| ELKTFRLKTRSWAGERSRRETCSR [L21T] | 3.84 |

| Variant | protein stability index |
| --- | --- |
| ELKTFRLKTRSWAGERSRRERCSR [L21R] | 3.37 |
| ELKTFRLKTRSWAGERSRREGCSR [L21G] | 3.75 |
| ELKTFRLKTRSWAGERSRREYCSR [L21Y] | 3.61 |
| ELKTFRLKTRSWAGERSRREECSR [L21E] | 3.6 |
| ELKTFRLKTRSWAGERSRRESCSR [L21S] | 3.9 |
| ELKTFRLKTRSWAGERSRREACSR [L21A] | 3.91 |
| ELKTFRLKTRSWAGERSRREWCSR [L21W] | 2.55 |
| ELKTFRLKTRSWAGERSRREMCSR [L21M] | 3.33 |
| ELKTFRLKTRSWAGERSRREFCSR [L21F] | 3.12 |
| ELKTFRLKTRSWAGERSRREHCSR [L21H] | 3.31 |
| ELKTFRLKTRSWAGERSRREDCSR [L21D] | 3.98 |
| ELKTFRLKTRSWAGERSRREPCSR [L21P] | 3.99 |
| ELKTFRLKTRSWAGERSRRECCSR [L21C] | 3.66 |
| ELKTFRLKTRSWAGERSRREICSR [L21I] | 2.81 |
| ELKTFRLKTRSWAGERSRRENCSR [L21N] | 3.35 |
| ELKTFRLKTRSWAGERSRREKCSR [L21K] | 3.76 |
| ELKTFRLKTRSWAGERSRREVCSR [L21V] | 3.71 |
| ELKTFRLKTRSWAGERSRRELCWR [S23W] | 2.69 |
| ELKTFRLKTRSWAGERSRRELCRR [S23R] | 2.87 |
| ELKTFRLKTRSWAGERSRRELCCR [S23C] | 3.05 |
| ELKTFRLKTRSWAGERSRRELCMR [S23M] | 3.26 |
| ELKTFRLKTRSWAGERSRRELCKR [S23K] | 3.62 |
| ELKTFRLKTRSWAGERSRRELCYR [S23Y] | 3.83 |
| ELKTFRLKTRSWAGERSRRELCER [S23E] | 3.53 |

| Variant | protein stability index |
| --- | --- |
| ELKTFRLKTRSWAGERSRRELCLR [S23L] | 3.35 |
| ELKTFRLKTRSWAGERSRRELCNR [S23N] | 3.8 |
| ELKTFRLKTRSWAGERSRRELCTR [S23T] | 3.89 |
| ELKTFRLKTRSWAGERSRRELCHR [S23H] | 3.13 |
| ELKTFRLKTRSWAGERSRRELCQR [S23Q] | 3.39 |
| ELKTFRLKTRSWAGERSRRELCGR [S23G] | 3.44 |
| ELKTFRLKTRSWAGERSRRELCIR [S23I] | 2.95 |
| ELKTFRLKTRSWAGERSRRELCVR [S23V] | 2.25 |
| ELKTFRLKTRSWAGERSRRELCDR [S23D] | 4.21 |
| ELKTFRLKTRSWAGERSRRELCAR [S23A] | 3.02 |
| ELKTFRLKTRSWAGERSRRELCPR [S23P] | 3.26 |
| ELKTFRLKTRSWAGERSRRELCFR [S23F] | 3.03 |
| ELKTFRLKTRSWAGERSRRELCSD [R24D] | 2.91 |
| ELKTFRLKTRSWAGERSRRELCSK [R24K] | 3.38 |
| ELKTFRLKTRSWAGERSRRELCSL [R24L] | 3 |
| ELKTFRLKTRSWAGERSRRELCSE [R24E] | 3.39 |
| ELKTFRLKTRSWAGERSRRELCSM [R24M] | 2.34 |
| ELKTFRLKTRSWAGERSRRELCSQ [R24Q] | 3.23 |
| ELKTFRLKTRSWAGERSRRELCSF [R24F] | 1.85 |
| ELKTFRLKTRSWAGERSRRELCSS [R24S] | 3.28 |
| ELKTFRLKTRSWAGERSRRELCSI [R24I] | 2.86 |
| ELKTFRLKTRSWAGERSRRELCSA [R24A] | 2.72 |
| ELKTFRLKTRSWAGERSRRELCSP [R24P] | 2.82 |
| ELKTFRLKTRSWAGERSRRELCSN [R24N] | 3.38 |

| Variant | protein stability index |
| --- | --- |
| ELKTFRLKTRSWAGERSRRELCSC [R24C] | 2.9 |
| ELKTFRLKTRSWAGERSRRELCSG [R24G] | 2.59 |
| ELKTFRLKTRSWAGERSRRELCSH [R24H] | 3.3 |
| ELKTFRLKTRSWAGERSRRMLCSR [E20M] | 3.25 |
| ELKTFRLKTRSWAGERSRRWLCSR [E20W] | 2.57 |
| ELKTFRLKTRSWAGERSRRKLCSR [E20K] | 3.47 |
| ELKTFRLKTRSWAGERSRRSLCSR [E20S] | 2.92 |
| ELKTFRLKTRSWAGERSRRGLCSR [E20G] | 2.65 |
| ELKTFRLKTRSWAGERSRRCLCSR [E20C] | 2.72 |
| ELKTFRLKTRSWAGERSRRPLCSR [E20P] | 3.08 |
| ELKTFRLKTRSWAGERSRRFLCSR [E20F] | 2.52 |
| ELKTFRLKTRSWAGERSRRVLCSR [E20V] | 2.9 |
| ELKTFRLKTRSWAGERSRRQLCSR [E20Q] | 3.53 |
| ELKTFRLKTRSWAGERSRRHLCSR [E20H] | 3.52 |
| ELKTFRLKTRSWAGERSRRNLCSR [E20N] | 3.42 |
| ELKTFRLKTRSWAGERSRRALCSR [E20A] | 3.25 |
| ELKTFRLKTRSWAGERSRRRLCSR [E20R] | 2.78 |
| ELKTFRLKTRSWAGERSRRYLCSR [E20Y] | 2.69 |
| ELKTFRLKTRSWAGERSRRDLCSR [E20D] | 2.98 |
| ELKTFRLKTRSWAGERSRRILCSR [E20I] | 2.66 |
| ELKTFRLKTRSWAGERSRRLLCSR [E20L] | 2.42 |
| ELKTFRLKTRSWAGERSRRTLCSR [E20T] | 2.88 |
